The values that follow come from patent publication US20210009671A1.

The experiment has as its target Recombinant human TNFα (R&D Systems) (human) (UniProt P01375).

Chain of Recombinant human TNFα (R&D Systems) (human) (P01375 77-233 limits assumed): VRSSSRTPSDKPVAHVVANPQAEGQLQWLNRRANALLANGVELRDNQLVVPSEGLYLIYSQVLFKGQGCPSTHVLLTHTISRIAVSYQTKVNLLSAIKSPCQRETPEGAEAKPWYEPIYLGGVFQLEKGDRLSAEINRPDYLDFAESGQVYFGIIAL

In the case of etanercept (Fc fusion), the IC50, TNFα-induced Caspase 3 activity in U937 cells came to 0.144 nM.
